According to patent US20240294650A1 (Alector, published 2024):

T1: human MerTK (human, UniProt Q12866 21-999)
T1 construct: endogenous receptor on cells; also called human MerTK endogenously expressed on SK-MEL-5 cells; MerTK on human macrophages
T1 sequence: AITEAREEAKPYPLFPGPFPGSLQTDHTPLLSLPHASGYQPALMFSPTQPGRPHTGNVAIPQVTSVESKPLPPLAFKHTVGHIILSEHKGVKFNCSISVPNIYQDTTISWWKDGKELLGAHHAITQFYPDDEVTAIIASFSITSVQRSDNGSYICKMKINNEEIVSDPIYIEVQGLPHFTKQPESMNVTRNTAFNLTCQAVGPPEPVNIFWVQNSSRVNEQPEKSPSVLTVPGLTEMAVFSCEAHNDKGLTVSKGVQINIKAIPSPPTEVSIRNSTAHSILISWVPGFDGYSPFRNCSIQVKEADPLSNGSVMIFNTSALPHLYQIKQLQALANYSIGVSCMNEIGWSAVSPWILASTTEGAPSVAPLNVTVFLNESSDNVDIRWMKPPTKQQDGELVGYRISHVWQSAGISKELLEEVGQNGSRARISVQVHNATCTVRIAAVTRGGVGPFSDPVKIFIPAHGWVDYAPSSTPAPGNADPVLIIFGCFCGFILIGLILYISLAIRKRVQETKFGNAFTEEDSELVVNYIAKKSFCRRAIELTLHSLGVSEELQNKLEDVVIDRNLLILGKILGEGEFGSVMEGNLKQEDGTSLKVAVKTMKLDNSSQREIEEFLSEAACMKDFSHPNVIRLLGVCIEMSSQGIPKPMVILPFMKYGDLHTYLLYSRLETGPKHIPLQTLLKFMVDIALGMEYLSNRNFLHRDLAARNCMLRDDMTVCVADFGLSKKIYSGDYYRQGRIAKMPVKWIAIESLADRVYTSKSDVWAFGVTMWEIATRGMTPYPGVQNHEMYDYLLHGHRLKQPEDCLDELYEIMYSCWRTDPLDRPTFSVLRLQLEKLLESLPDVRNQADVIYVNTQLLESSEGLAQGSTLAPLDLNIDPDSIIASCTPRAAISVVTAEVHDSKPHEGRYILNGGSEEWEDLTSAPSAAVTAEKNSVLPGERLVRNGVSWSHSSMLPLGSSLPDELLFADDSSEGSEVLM

T2: recombinant human MerTK extracellular domain (human, UniProt Q12866 21-505)
T2 construct: also called human MerTK ECD; not shown: polyHis or TEVS/Thrombin/murine IgG2a-Fc tag
T2 sequence: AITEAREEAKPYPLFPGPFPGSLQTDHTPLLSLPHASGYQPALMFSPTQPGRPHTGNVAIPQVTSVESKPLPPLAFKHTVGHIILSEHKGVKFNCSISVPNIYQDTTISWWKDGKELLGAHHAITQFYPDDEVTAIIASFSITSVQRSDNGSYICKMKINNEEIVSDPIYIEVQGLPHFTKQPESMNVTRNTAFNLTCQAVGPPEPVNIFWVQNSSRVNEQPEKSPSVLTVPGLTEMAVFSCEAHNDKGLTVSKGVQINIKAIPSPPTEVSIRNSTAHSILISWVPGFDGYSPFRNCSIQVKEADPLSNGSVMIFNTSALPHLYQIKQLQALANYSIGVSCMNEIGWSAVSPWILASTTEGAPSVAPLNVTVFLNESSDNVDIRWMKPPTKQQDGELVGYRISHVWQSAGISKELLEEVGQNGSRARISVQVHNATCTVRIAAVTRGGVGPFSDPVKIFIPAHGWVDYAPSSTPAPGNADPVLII


What was measured:
[1] = biological target: T1, human MerTK; experiment: FACS, SK-MEL-5 cells, 10 ug/ml
Protocol: To determine whether recombinant anti-human MerTK antibodies of the present disclosure bind to human MerTK endogenously expressed on SK-MEL-5 cells and CHO cells overexpressing mouse MerTK (CHO-muMerTK OE cells), as compared to A375 and parental CHO cells as negative controls, the following experiments were performed. SK-MEL-5 cells, A375 cells, CHO-muMerTK OE cells, and CHO parental cells were plated at 100,000 cells/well. Anti-MerTK antibodies were added to the cells at 10 μg/ml. After 60 minutes on ice, cells were washed and then stained with PE-conjugated goat anti-human IgG antibody (Southern Biotech Cat #2040-09, Birmingham, AL) in the presence of Fc block solution on ice for 30 minutes, and then washed twice with cold FACS buffer (2% FBS in PBS). Mouse anti-human MerTK-PE conjugated (Biolegend, Clone 590H11G1E3) or anti-mouse MerTK-PE conjugated (ThermoFisher, Clone DS5MMER) antibodies were used as positive controls. Stained cells were acquired on a BD FACS Canto II cytometer and the mean fluorescence intensity (MFI) was calculated with FlowJo.

[2] = biological target: T2, recombinant human MerTK extracellular …; experiment: SPR Carterra LSA, Ab immobilised
Protocol: Binding kinetics of anti-MerTK IgG1 antibodies of the present disclosure to human, cyno, and murine MerTK were evaluated using a Carterra LSA instrument (Carterra, Salt Lake City, UT). […] A HC200M sensor chip (Carterra) was activated using the single channel flow cell with a 7-minute injection of a 1:1:1 mixture of 100 mM MES pH 5.5, 100 mM sulfo-NHS, 400 mM EDC (all reconstituted in MES pH 5.5; 100 μl of each mixed in vial immediately before running assay). After switching to the multi-channel array flow cell, the antibodies were injected over the activated chip in three 96-spot arrays for 10 minutes each. The remaining unconjugated active groups on the chip were then blocked by injecting 1M Ethanolamine pH 8.5 (Carterra) for 7 minutes using the single channel flow cell. The resulting sensor chip contained three spots for each antibody, at three different densities. Two independent experiments were performed as follows, resulting in an N of between one and six determinations for each antibody. Spots that yielded less than 25 RU of analyte binding were excluded from further analysis.
After priming with running buffer (HBS-TE, Carterra) with 0.5 mg/ml BSA (Sigma), the immobilized anti-MerTK antibodies were tested for their ability to bind to several forms of recombinant MerTK extracellular domain, including human, cynomolgus, and mouse orthologs as described above. Estimates of affinity were generated by injecting each analyte over the entire antibody array using the single channel flow cell. MerTK analytes were diluted with running buffer, in a series of six, three-fold serial dilutions starting from 1 μM for human and cynomolgus MerTK, and 600 nM for mouse MerTK. Analytes were injected for 5 minutes, and dissociation was followed for 10 minutes. After each analyte injection, antibodies were regenerated with either Protein A/G Elution Buffer (Thermo) with 1M NaCl (Teknova), or with 10 mM Glycine pH 2.5. Three buffer blanks were run between each series (one species per series). Data were processed and analyzed using NextGenKIT high-throughput kinetics analysis software (Carterra).

[3] = biological target: T1, human MerTK; experiment: cell-based or functional assay

MFI [1]	Kd [2]	Fold increase in PAKT over IgG control [3]	EC50 (nM), pAKT in SK-MEL-5 cells [3]	Binder
43300 MFI	0.041 µM	3.2 fold	–	MTK-216 (antibody, human IgG1, V domains shown) VH: EVQLVESGGGLVKPGGSLKLSCAASGFTFSDYGMHWVRQAPEKGLEWVAFISSGSTTIYYADTVKGRFTISRDNAKNTLILQMTSLRSEDTAIYYCTRGGFHLDYWGQGTTLTVSS VL: SIMMTQSPSSLAVSAGEKVTMGCKSSQSVLYSANQQNYLAWYQQKPGQSLKLLIYWASTRESGVPDRFTGSGSGTDFTLTISSVQAEDLAVYYCHQYFSSWTFGGGTKLEIK
33800 MFI	0.24 µM	3 fold	–	MTK-204 (antibody, human IgG1, V domains shown) VH: EVQLVESGGGLVKPGGSLKLSCAASGFTFSDYGMHWVRQAPEKGLEWVAYISSGTSTIYYEDTVKGRFTISRDNAKNTLFLQMTSLRSEDTAMYYCARGGLLFDYWGQGTTLTVSS VL: NIMMTQSPSSLAVSAGEKVTMSCKSSQSVLYSSNQKNYLAWYQQKPGQSPKLLIQWASTRESGVPDRFTGSGSETDFTLTIRSVQAEDLAVYYCHQYFSSWTFGGGTKLEIK
46100 MFI	0.033 µM	3 fold	1.01 nM	MTK-202 (antibody, human IgG1, V domains shown) VH: EVQLVESGGGLVKPGGSLKLSCAASGFTFSDFGMHWVRQVPEKGLEWVAFISGGSNTIYYTDTVKGRFTISRDNAKNTLFLQMTSLRSEDTAMYYCVRNGNSFAYWGQGTLVTVSA VL: NIMMTQSPSSLAVSAGEKVTMNCKSSQSVLYSSNQKNYLAWYQQKPGQSPKLLIYWASTRESGVPDRFTGSGSGTDFTLTISNIQAEDLAIYYCHQYFFSWTFGGGTKLEIK
39000 MFI	0.026 µM	3 fold	0.65 nM	MTK-231 (antibody, human IgG1, V domains shown) VH: DVQLQESGPGLVKPSQSLSLTCSVTGYSITSGYYWNWIRQFPGNKLEWMGYISYDGTYNYHPSLKNRISITRDTSKNQFFLTLNSVTTEDTATFYCTRGGGYWGQGTSVTVSS VL: DVVMTQTPLSLPVSLGDQASISCRSSQSLVHSDGNTYLHWYLQKPGQSPKLLIYKVSNRFSGVPDRFSGSGSGTDFTLKISRLEAEDLGIYFCSQTTHIPLTFGSGTKLEIK
29900 MFI	0.031 µM	3.3 fold	15 nM	MTK-210 (antibody, human IgG1, V domains shown) VH: QVQLQQSGPELVKPGASVKISCKASDYEFSRSWMNWVKQRPGKGLEWIGRIYPGDGDTNYNGKFKGKATLTADKSSNTAYMQLNSLTSEDSAVYFCARKGGYYYSISNYFDYWGQGTTLTVSS VL: QIVLTQSPAIMSASPGVKVTMTCSASSSVSYMHWYQQKPGSSPRLLIYDTSNLASGVPVRFSGSGSGTSYSLTISRMEAEDAATYYCQQWSSYPPYTFGGGTKLEIK
19000 MFI	0.37 µM	2.6 fold	208 nM	MTK-215 (antibody, human IgG1, V domains shown) VH: EVQLVESGGGLVKPGGSLKLSCAASGFIFSDYGMHWVRQAPEKGLEWVAYISSGSSTIYYGDTVKGRFTISRDNAKNTLFLQMTSLRSEDTAMYYCAKGGRYGAMDYWGHGTSVTVSS VL: DIVLTQSPATLSVTPGDSVSLSCRASQSISNNLHWYQQKSHESPRLLIKNPSQSISGIPSRFGARGSGTDFTLIINSVETEDLGVYFCQQSNSWPFTFGSGTKLEIK
3270 MFI	0.15 µM	3.1 fold	–	MTK-206 (antibody, human IgG1, V domains shown) VH: QVQLQQSGAELARPGASVKMSCKASGYTFTSYTMHWVKQRPGQGLEWIGYINPSSGYIKNSQKFKDKATLTADKSSSTAYMQLSSLTSEDSAVYYCARTVYGYYGSSPDYWGQGTTLTVSS VL: DIQMTQSPSSLSASLGERVSLTCRASQDIGSNLNWLQQEPDGTIKRLIYATSSLESGVPKRFSGSRSGSDYSLTISSLESEDFVDYYCLQYDSSPWTFGGGTKLEIK
26800 MFI	0.44 µM	3.5 fold	–	MTK-219 (antibody, human IgG1, V domains shown) VH: QVQLQQSGADLMKPGASVKLSCKATGNTFTGYWIEWVKQRPGHGLEWIGEILTGSGSTNYNERFKGKATFTADTSSNTAYMQLSSLTTEDSAIYYCAGSYFTNSWFPYWGQGSLVTVSA VL: DIVLTQSPASLAVSLGQRATISCRASESVDSYGNSFMHWYQQKPGQPPKLLIYRAYTLESGIPARFSGSGSRTDFTLTINPVEADDVATYYCQQSNEDPRTFGGGTKLEIK
27500 MFI	0.13 µM	4.6 fold	–	MTK-222 (antibody, human IgG1, V domains shown) VH: QVQLQQSGADLMKPGASVKLSCKATGYTFTGYWIEWVKQRPGHGLEWIGEILTGSGSSNYNEKFKGKATFTADSSSNTAFMQLSSLTTEDSAIYYCAGSYYSNSWFPYWGQGSLVTVSA VL: DIVLTQSPVSLAVSLGQRATISCRASESVDSYGSSFMHWYQQKPGQPPKLLIYRASSLESGIPARFSGSGSRTDFTLTINPVETDDVATYYCQQSNEDPRTFGGGTKLEIK
8080 MFI	0.082 µM	3.3 fold	96.9 nM	MTK-212 (antibody, human IgG1, V domains shown) VH: QVQLQQSGPELVKPGASVKISCKASGYAFSSSWVNWVKQRPGKGLEWIGRIYPGDGDSNYNGNFKGKATLTADKSSNTAYLQLSSLTSEDSAVYFCARKSHFIYYTLDYWGQGTPVTVSS VL: DIVMTQSHKFKSTSVGDRVSIACKASQDVGTSVAWYQQKPGKSPKLLIYWASSRHTGVPDRFTGSGSGTDFTLTISNVQSEDLTDYFCQQYSTYPYTFGGGTKLEIK
